One experiment has as its target T1, hiR2-FL-I566A-T7 (human, UniProt Q6PJF5 1-856).
T1 sequence: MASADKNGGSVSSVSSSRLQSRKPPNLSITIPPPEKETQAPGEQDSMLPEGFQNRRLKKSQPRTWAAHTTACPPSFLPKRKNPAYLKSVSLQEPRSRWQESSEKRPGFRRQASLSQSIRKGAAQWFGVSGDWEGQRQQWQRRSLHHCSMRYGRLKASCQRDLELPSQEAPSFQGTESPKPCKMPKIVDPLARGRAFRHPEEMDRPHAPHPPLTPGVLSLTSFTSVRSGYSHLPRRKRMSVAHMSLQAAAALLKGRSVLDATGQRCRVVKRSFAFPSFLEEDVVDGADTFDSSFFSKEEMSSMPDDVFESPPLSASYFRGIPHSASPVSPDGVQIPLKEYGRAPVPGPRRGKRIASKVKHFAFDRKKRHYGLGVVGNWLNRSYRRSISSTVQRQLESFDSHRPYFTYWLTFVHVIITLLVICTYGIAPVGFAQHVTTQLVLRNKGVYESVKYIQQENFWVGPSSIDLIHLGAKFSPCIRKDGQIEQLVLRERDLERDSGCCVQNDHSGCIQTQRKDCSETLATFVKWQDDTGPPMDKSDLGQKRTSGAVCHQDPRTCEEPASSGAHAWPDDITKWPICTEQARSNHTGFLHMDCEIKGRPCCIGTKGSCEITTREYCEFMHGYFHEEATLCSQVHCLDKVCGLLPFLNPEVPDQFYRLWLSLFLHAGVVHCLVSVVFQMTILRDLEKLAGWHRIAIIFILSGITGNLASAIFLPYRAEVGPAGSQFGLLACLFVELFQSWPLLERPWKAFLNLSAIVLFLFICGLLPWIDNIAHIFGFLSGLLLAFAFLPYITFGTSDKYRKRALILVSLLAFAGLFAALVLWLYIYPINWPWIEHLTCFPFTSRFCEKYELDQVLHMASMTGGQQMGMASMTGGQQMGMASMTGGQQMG
Description: FACS on MEF-DKO cells expressing the variant, 3 µg/ml antibody. In short, it runs like this:
(§1)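 Pelleted cells are resuspended in antibody at 3 μg/ml and kept on ice 1 hour, washed, then incubated with PE goat anti-mouse IgG F(ab′)2 diluted 1:100 on ice for 1 hour protected from light, washed again and analysed by flow cytometry.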

A further experiment concerns the target T2, hiR2-FL-C593A-T7 (human, UniProt Q6PJF5 1-856).
T2 construct: reduced surface expression reported
T2 sequence: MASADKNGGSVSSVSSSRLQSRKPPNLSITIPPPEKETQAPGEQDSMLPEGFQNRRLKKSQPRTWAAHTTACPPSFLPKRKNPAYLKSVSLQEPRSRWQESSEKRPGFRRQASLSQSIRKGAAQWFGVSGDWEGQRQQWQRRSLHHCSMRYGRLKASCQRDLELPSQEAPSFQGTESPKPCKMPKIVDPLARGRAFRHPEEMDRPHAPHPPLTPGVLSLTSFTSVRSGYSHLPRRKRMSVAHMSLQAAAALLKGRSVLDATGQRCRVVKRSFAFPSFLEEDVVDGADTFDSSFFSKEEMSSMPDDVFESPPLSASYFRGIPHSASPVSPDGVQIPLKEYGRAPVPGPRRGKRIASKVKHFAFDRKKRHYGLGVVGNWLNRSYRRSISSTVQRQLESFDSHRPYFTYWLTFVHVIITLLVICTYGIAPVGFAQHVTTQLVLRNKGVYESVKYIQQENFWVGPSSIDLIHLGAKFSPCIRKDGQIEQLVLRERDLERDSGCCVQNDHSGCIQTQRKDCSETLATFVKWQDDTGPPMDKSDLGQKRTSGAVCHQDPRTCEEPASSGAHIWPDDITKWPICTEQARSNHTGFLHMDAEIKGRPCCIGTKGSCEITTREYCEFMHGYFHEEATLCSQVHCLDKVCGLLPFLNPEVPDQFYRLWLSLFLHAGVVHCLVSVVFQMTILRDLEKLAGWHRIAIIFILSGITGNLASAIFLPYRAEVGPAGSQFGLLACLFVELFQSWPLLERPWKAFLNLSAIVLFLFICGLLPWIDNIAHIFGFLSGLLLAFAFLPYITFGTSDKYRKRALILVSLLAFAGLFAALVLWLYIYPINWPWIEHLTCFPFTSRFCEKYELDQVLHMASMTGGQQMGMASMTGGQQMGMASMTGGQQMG
The description is as above. In short, it runs like this: as §1

B1: antibody 34 (antibody, V domains shown)
VH: QVTLKESGPGILQPSQTLSLTCSFSGFSLSTFSLGVGWIRQSSGKGLEWLAHIWWDDEKYYNPALKSRLTISKDTSKNQVFLKIANVDAADTATYYCARAYYSKSYYALDYWGQGTSVTVSS
VL: DIQMTQSPSSLSASLGERVSLTCRASQEISGYLSWLQQKPDGTIKRLIYAASTLDSGVPKRFSGSRSGSDYSLAISSLESEDFADYYCLQYANFPFTFGSGTKLEIK
notes: mouse IgG, kappa light chain; also called clone #34; purified antibody 34
As for B1, the “loss of binding vs wild type” value in the experiment with hiR2-FL-I566A-T7 is at least 30%.

B2: antibody 50 (antibody, V domains shown)
VH: QVQLQQSGAELVRPGASVKVSCKASGYAFSNYLIEWVKQRPGQGLEWIGVINPGSGFTKYNEKFKGKATLTADKSSSTAYMQLSSLTSEDSAVYFCARGLYRAMDYWGQGTSVTVSS
VL: DIQMTQSPASQSASLGESVTITCLASQTIGTWLAWYQQKPGKSPQLLIYAAASLADGVPSRFSGGGSGTKFSFKISSLQAEDFVNYYCQQIYSTPYTFGGGTKLEIK
notes: mouse IgG, kappa light chain; also called clone #50; purified antibody 50
B2: in the experiment with hiR2-FL-C593A-T7, the “loss of binding vs wild type” value was at least 30%.

The record behind these values is patent US20240287172A1 (SCIRHOM, published 2024).
